In publication PMC3708853:

Tests used:
[1] = molecular target: wild-type CD47 re-expressed in CD47-deficient JinB8 T cells (UniProt Q08722)
[2] = molecular target: CD47 on Jurkat T cells (human (endogenous in Jurkat)) (UniProt Q08722)

Substance | inhibition of CD69 induction (mRNA, real-time PCR) in anti-CD3-activated JinB8 cells transfected with wild-type CD47 [1] | reduction of CD69 mRNA expression (real-time PCR) in Jurkat T cells activated by anti-CD3 antibody for 2 hours, TSP-1 10 µg/ml; no inhibition in CD47-deficient JinB8 T cells [2] | reduction of CD69 mRNA expression (real-time PCR) in Jurkat T cells activated by anti-CD3 antibody for 2 hours, BAD-1 10 µg/ml; no block in CD47-deficient JinB8 T cells [2]
recombinant thrombospondin-1 (TSP-1) (from UniProt P07996 19-1170) (natural protein) | 35.1% | 45% | 
Blastomyces adhesin-1 (BAD-1), native protein purified from B. dermatitidis yeast (natural protein) | 34.9% |  | 65%
